# Results as given in patent US12173057B2, “Antibodies and therapeutic uses thereof” (Ibex Biosciences, Inc., priority 2018, dated 2024).
# Changes are numbered by the printed parent chain. Entries after “also recorded” stand apart in the source; their conditions may differ.
# B1: murine antibody: recombinant mouse anti-filamin-A mAb of the disclosure (mouse antibody B186); mouse VL SEQ ID NO:22, VH SEQ ID NO:24 (antibody, listed as Mus sp., V domains shown)
# VH: EVKLVESGGGLVQPGGSLKLSCAASGFTFSSYTMSWVRQTPEKRLEWVAYISNGGGSTYYPDTVKGRFTISRDNAKNTLYLQMSSLKSEDTAMYYCASDGLLRPFAYWGQGTLVTVSA
# VL: DIVMTQSHKFMSTSVGDRVSITCKASQDVSIDVAWYQQKPGQSPKLLIYSASHRYTGVPDRFTGSGSGTDFTFTISGVQAEDLAVYFCQQHYSTPLTFGAGTKLELK
# B2: B411: anti-filamin-A human chimeric antibody, light chain variable region SEQ ID NO:2, heavy chain variable region SEQ ID NO:7 (antibody, V domains shown)
# VH: B1 VH with L101I, L102I
# VL: B1 VL with I31L
# modifications: VH domain of mAbs B407 and B411; human chimeric mAb VL domain of mAbs B408, B409, B410, and B411
# What was measured:
# MDA-MB-231 cells = test: ORIS cell migration (motility) assay; assay type: cell-based, human
# Protocol: Cell motility assays utilized the Platypus Technologies ORIS™ cell migration assay platform, which is generally described at platypustech.com/discoverAssay.html.
# Specifically, the filamin-A antibodies of the present disclosure were evaluated in the ORIS™ cell migration assay, which used tri-coated 96 well plates (Platypus #CMATR1.101). Cells were seeded at approximately 50,000 cells/well. Cells were incubated overnight at 37° C. without CO2 in DMEM, in the case of HEK-293 cells, or L-15 containing 10% FBS, in the case of MDA-MB-231 cells. Stoppers covering cell growth chambers were removed with the ORIS™ stopper tool, growth media was removed, and wells were gently washed with 100 microliters of sterile PBS. Stoppers were left in place in reference wells until the staining step to serve as pre-migration controls. After washing, a 100 microliter volume of fresh culture media containing the specific treatment was added to each well. The cells were then allowed to incubate overnight. At the end of the incubation period, cells were fluorescently stained with Calcein AM for 30 minutes. Fluorescence was then measured using a microplate reader with a Detection Mask in place.
# FIGS. 1 and 2 depict the relative fluorescence units (RFUs) present in the detection zones for each condition (mean+/−S.D., n=2 wells/condition).
# Wells containing the cells existed in three formats: coated with collagen, coated with fibronectin, or a tissue culture (TC) treatment.
# Well treatments were as follows: no antibody control, mouse antibody (mAb FLNA 1 mcg/ml), mouse antibody (mAb FLNA 20 mcg/ml), human chimeric antibody (hAb FLNA 1 mcg/ml), human chimeric antibody (hAb FLNA 20 mcg/ml), apicdin (100 nM), cytochalasin B (30 micromolar); see FIG. 1. An increase in the number of RFUs correlates with an increase in cellular motility.
# filamin-A = test: Immunofluorescence assays with MDA-MB-231 breast cancer cell line; assay type: cell-based, human
# Protocol: Characterization of the filamin-A mAbs was performed using immunofluorescence assays with the MDA-MB-231 breast cancer cell line. […] For comparison, the AHO1402 mAb and another commercially available mAb, TI10 (Millipore MAB1680-C), were assayed at the same time.
# The primary antibodies utilized in the immunofluorescence assays were as follows: • Anti-Filamin-A, clone TI10 (Millipore, p/n MAB1680-C) • Anti-Filamin-A, clone 209 #13 (Life Technologies, p/n AHO1402) • Anti-Filamin-A, mouse mAb • Anti-Filamin-A, human chimeric mAb • Anti-beta Actin, rabbit polyclonal (Rockland, p/n 600-401-886S)
# Two primary methods of Immunofluorescence staining were utilized. The first method comprises single staining or double staining with methanol as a fixative and 0.2% Triton as a permeabilization agent, which is described in Alper et al. 2009. The second method utilizes a double staining technique with 2% paraformaldehyde as a fixative and 0.2% triton as a permeabilization agent.
# Primary antibodies were incubated with the fixed and permeabilized cells for 1 hour at room temperature at a concentration of 1.25 mcg/ml. After one or more wash steps, secondary antibodies were incubated with the cells for 1 hour at room temperature. […]
# [1] = tested on: HEK293A (human embryonic kidney cell line); test: CellCountzEZ Cell Survival Assay; assay type: cell-based; details: for ratio of inhibition: dose not restated in b354 (10 μg)
# Protocol: (§1) A study was conducted to assess cell survival following incubation with antibody B411. DU145 (human prostate cancer cell line) and HEK293A (human embryonic kidney cell line) cells were seeded on 96-well plates (10^4 cells/well) and incubated for 4 hours at 37° C. 1 μg or 10 μg B411 (endotoxin removed, 1.2 EU/mL) was added to the wells and incubated for 24 or 48 hours. An untreated group for both cell types was also included. Cell survival was detected using CellCountzEZ™ Cell Survival Assay kit and results were determined by reading OD412 with a reference to OD650.
# [2] = tested on: DU145 (human prostate cancer cell line); test: CellCountzEZ Cell Survival Assay; assay type: cell-based; details: for ratio of inhibition: dose not restated in b354 (10 μg)
# Protocol: as §1
# [3] = tested on: MDA-MB-231 breast cancer cells; test: ORIS cell migration assay with Calcein AM / propidium iodide / Hoechst 33342 staining; assay type: cell-based, human; details: overnight incubation with antibody versus buffer control
# Protocol: Additional cell assays were carried out using the B411 antibody and the breast cancer cell lines MDA-MB-231 and SKBR3. Specifically, the filamin-A antibody B411 was evaluated in the ORIS™ cell migration assay, which used tri-coated 96 well plates (Platypus #CMATR1.101). Cells were seeded at approximately 25,000 or 50,000 cells/well. Cells were incubated overnight at 37° C., CO2, McCoy's in the case of SKBR3 cells, or L-15 containing 10% FBS, without CO2 in the case of MDA-MB-231 cells. Stoppers covering cell growth and migration zones were removed with the ORIS™ stopper tool, growth media was removed, and wells gently washed with 100 microliters of sterile PBS. Stoppers were left in place in reference wells until the staining step to serve as no-migration controls. After washing, a 100 microliter volume of fresh culture media containing the specific treatment was added to each well. The cells were then allowed to incubate overnight. At the end of the incubation period, cells were fluorescently stained as follows: • Carefully remove remaining culture medium from wells and wash with 100 μL of PBS. […] Fluorescence was then measured using a microplate reader with a Detection Mask in place. • Carefully remove Calcein AM and wash with 100 μL of PBS. […] Incubate 5-10 min at room temperature. • Take a fluorescence image (blue, green and red channels) of a representative well(s) using 5× magnification.
# [4] = tested on: SKBR3 cells (breast adenocarcinoma); test: Endocytosis assay (Zenon pHrodo labelled antibody, flow cytometry); assay type: cell-based, human; details: 12 μg/mL labelled antibody; 24 hours, 37° C.
# Protocol: Experiments were conducted to determine if antibody B411 is endocytosed by cells. 250,000 cells/well were plated and incubated overnight at 37° C., 5% CO2. 12 μg/mL of antibodies were labelled with Zenon pHrodo kit (human green) according to the manufacturer's protocol for 5 minutes at room temperature, in the dark. The plated cells were then incubated with the labeled antibodies for 24 hours, at 37° C., 5% CO2. Cells were then lifted by manual scraping, and washed prior to analysis by flow cytometry.
# [5] = biological target: T1, surface filamin A on SKBR3 (breast adenocarcinoma) cell line (Homo sapiens, UniProt P21333); test: B411 surface staining by flow cytometry; assay type: binding; details: 2 μg primary antibody, 1 hour on ice
# T1 construct: endogenous in cells; host or cells: SKBR3
# T1 sequence (P21333 whole entry): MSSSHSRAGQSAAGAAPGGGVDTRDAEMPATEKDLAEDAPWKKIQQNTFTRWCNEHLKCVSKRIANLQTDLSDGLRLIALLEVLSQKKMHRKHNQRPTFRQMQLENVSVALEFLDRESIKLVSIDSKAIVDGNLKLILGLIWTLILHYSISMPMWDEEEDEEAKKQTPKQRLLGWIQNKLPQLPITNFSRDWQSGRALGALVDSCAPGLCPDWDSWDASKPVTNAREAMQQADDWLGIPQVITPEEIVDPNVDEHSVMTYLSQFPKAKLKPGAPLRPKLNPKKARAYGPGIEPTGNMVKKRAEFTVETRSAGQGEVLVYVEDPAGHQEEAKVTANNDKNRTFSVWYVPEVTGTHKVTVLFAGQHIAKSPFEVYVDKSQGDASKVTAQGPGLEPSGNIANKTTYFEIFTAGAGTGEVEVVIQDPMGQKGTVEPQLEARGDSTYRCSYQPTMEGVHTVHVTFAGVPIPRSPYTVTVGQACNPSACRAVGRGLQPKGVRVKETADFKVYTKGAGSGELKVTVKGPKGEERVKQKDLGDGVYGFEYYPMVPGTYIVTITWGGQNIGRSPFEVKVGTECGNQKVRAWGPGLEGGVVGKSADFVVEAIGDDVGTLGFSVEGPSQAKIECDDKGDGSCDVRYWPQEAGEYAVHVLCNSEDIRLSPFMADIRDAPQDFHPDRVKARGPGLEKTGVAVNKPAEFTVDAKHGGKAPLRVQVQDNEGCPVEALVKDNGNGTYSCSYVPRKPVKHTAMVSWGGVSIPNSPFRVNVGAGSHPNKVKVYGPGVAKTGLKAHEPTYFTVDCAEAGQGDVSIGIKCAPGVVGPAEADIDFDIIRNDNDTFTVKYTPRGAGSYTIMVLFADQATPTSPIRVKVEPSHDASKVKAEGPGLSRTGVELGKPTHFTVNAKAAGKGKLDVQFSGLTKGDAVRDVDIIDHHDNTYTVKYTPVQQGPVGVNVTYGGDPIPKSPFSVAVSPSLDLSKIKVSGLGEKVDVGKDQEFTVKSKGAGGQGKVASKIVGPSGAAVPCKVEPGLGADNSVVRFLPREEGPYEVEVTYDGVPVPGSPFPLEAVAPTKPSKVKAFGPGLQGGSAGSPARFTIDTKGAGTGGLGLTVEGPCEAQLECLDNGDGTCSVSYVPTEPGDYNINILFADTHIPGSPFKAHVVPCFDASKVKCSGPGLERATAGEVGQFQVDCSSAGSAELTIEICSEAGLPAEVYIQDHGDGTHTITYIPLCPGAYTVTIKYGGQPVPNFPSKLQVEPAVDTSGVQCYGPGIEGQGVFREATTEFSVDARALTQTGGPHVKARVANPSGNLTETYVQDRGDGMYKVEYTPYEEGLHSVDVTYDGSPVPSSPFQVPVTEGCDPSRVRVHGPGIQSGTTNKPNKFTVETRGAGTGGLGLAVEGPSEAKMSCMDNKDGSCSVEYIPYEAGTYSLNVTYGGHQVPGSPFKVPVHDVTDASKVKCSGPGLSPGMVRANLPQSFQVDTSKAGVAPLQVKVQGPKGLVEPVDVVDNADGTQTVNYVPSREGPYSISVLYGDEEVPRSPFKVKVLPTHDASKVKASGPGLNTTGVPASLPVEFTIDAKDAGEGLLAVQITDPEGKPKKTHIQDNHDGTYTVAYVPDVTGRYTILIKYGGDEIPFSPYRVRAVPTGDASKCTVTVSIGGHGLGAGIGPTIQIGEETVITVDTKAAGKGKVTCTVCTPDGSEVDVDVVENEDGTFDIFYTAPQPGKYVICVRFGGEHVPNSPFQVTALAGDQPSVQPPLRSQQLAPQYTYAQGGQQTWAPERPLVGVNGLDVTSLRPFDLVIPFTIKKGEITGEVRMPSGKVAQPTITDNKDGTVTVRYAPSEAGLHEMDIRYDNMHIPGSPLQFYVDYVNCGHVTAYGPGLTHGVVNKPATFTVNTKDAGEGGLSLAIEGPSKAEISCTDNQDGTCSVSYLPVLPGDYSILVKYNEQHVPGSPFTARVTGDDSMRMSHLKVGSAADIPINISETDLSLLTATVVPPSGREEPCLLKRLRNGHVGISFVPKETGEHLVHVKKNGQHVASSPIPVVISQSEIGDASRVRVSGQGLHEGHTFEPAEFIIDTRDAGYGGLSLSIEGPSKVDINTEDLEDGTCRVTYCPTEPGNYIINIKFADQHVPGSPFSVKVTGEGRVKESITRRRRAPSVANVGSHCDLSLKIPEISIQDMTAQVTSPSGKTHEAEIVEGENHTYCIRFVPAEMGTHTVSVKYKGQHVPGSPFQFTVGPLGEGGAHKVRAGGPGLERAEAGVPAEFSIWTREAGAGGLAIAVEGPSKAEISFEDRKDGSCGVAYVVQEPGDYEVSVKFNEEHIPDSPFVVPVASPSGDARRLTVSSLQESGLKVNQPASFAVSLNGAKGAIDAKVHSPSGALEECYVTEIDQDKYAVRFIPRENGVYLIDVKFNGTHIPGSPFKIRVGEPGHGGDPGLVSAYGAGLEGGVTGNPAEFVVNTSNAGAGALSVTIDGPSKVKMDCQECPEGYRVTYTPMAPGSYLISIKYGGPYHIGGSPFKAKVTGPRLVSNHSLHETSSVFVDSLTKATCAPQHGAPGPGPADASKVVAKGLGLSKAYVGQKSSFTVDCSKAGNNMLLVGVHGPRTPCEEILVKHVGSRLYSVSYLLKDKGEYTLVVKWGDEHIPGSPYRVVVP
# Protocol: (§2) B411 surface staining on several different cell types was conducted. Cells were plated at a concentration of 0.5-1.0 million cells per well, and incubated overnight. Cells were then lifted from the wells, washed, and resuspended in flow cytometry media with 2 μg of primary antibody for 1 hour on ice. Cells were washed and incubated with the secondary antibody (5 μg/ml) for 30 minutes on ice. Cells were washed again and analyzed by flow cytometry.
# [6] = biological target: T2, surface filamin A on SKOV3 cell line (ovarian cancer) (Homo sapiens, UniProt P21333); test: B411 surface staining by flow cytometry; assay type: binding; details: 2 μg primary antibody, 1 hour on ice
# T2 construct: endogenous in cells; host or cells: SKOV3
# T2 sequence (P21333 whole entry): as above
# Protocol: as §2
# [7] = biological target: T3, surface filamin A on SKNAS (human neuroblastoma) cell line (Homo sapiens, UniProt P21333); test: B411 surface staining by flow cytometry; assay type: binding; details: 2 μg primary antibody, 1 hour on ice
# T3 construct: endogenous in cells; host or cells: SKNAS
# T3 sequence (P21333 whole entry): as above
# Protocol: as §2
# [8] = biological target: T4, surface filamin A on HeLa cells (Homo sapiens, UniProt P21333); test: B411 surface staining by flow cytometry; assay type: binding; details: 2 μg primary antibody, 1 hour on ice
# T4 construct: endogenous in cells; host or cells: HeLa
# T4 sequence (P21333 whole entry): as above
# Protocol: as §2
molecule,measurement,setting,value
"C=C1[C@@H](C)[C@H]2[C@H](Cc3ccccc3)NC(=O)[C@]23OC(=O)/C=C/[C@H](O)CCC[C@@H](C)C/C=C/[C@H]3[C@@H]1O [cytochalasin B, reference compound]",effect on cell migration,"MDA-MB-231 cells; tissue culture (TC) treatment wells, no coating",little effect across treatments with the exception of cytochalasin B
B1,effect on cell motility,MDA-MB-231 cells; collagen coated wells,no considerable differences
same,effect on cell migration,"MDA-MB-231 cells; collagen treated wells, 1 μg/mL",did not lead to a reduction in cell migration
same,effect on cell motility / cell migration,"MDA-MB-231 cells; fibronectin coated wells, 1 μg/mL",decreases in cell motility
same,effect on cell motility / cell migration,"MDA-MB-231 cells; fibronectin coated wells, 1 μg/mL, listed as murine mAbs",less of a reduction
same,cell motility (relative fluorescence units in detection zone),"MDA-MB-231 cells; fibronectin coated wells, antibody 1 μg/mL, overnight incubation",191.34 RFU
same,immunofluorescence staining pattern,"filamin-A; MDA-MB-231 cells, primary antibody 1.25 mcg/ml",punctate staining pattern
same,immunofluorescence staining pattern,"filamin-A; first method: methanol fixative, 0.2% Triton permeabilization",reproduced the punctuate staining pattern
B2,effect on cell proliferation,"[1]; 1 μg dose, 24 h or 48 h",did not have an effect
same,inhibition of cell proliferation,[1]; 10 μg,Inhibition of HEK293 cell proliferation was also observed
same,ratio of inhibition,[1]; 24 h,9.3%
same,ratio of inhibition,[1]; 48 h,17.7%
same,inhibition effect on proliferation versus untreated group,"[2]; 1 μg dosing, 24 h",significant inhibition effect on proliferation
same,inhibition effect on proliferation versus untreated group,"[2]; 1 μg dosing, 48 h",no statistically significant effect
same,cell proliferation (OD412 with reference to OD650),"[2]; 1 μg or 10 μg, 24 or 48 hours, overall statement",inhibits DU145 (cancer) cell proliferation
same,inhibition effect on proliferation versus untreated group,"[2]; 10 μg dosing, 24 h and 48 h",significant inhibition effects on proliferation
same,ratio of inhibition,[2]; 24 h,7.8%
same,ratio of inhibition,[2]; 48 h,14.6%
same,Calcein AM staining (metabolic activity),[3],more variability in Calcein AM staining
same,Hoechst 33342 staining (apoptosis-like phenotype),[3],increase in Hoechst 33342 staining
same,endocytosis of antibody,[4],detected
same,"number of cells positive for endocytosis, SKBR3 compared to HEK (non-cancer) cells",[4],More SKBR3 cells were positive for B411 than HEK cells
same,surface staining,[5],some positive staining; also recorded: weaker compared to the other cell lines tested
same,surface staining,[6],Highly Positive staining
same,surface staining,[7],Highly Positive staining
same,surface staining,[8],Highly Positive staining
